Here are results for one protein from patent US7018836.

This data set deals with Drosophila RNA polymerase II large subunit, P04052.
Chain of Drosophila RNA polymerase II large subunit, P04052 (P04052 whole entry): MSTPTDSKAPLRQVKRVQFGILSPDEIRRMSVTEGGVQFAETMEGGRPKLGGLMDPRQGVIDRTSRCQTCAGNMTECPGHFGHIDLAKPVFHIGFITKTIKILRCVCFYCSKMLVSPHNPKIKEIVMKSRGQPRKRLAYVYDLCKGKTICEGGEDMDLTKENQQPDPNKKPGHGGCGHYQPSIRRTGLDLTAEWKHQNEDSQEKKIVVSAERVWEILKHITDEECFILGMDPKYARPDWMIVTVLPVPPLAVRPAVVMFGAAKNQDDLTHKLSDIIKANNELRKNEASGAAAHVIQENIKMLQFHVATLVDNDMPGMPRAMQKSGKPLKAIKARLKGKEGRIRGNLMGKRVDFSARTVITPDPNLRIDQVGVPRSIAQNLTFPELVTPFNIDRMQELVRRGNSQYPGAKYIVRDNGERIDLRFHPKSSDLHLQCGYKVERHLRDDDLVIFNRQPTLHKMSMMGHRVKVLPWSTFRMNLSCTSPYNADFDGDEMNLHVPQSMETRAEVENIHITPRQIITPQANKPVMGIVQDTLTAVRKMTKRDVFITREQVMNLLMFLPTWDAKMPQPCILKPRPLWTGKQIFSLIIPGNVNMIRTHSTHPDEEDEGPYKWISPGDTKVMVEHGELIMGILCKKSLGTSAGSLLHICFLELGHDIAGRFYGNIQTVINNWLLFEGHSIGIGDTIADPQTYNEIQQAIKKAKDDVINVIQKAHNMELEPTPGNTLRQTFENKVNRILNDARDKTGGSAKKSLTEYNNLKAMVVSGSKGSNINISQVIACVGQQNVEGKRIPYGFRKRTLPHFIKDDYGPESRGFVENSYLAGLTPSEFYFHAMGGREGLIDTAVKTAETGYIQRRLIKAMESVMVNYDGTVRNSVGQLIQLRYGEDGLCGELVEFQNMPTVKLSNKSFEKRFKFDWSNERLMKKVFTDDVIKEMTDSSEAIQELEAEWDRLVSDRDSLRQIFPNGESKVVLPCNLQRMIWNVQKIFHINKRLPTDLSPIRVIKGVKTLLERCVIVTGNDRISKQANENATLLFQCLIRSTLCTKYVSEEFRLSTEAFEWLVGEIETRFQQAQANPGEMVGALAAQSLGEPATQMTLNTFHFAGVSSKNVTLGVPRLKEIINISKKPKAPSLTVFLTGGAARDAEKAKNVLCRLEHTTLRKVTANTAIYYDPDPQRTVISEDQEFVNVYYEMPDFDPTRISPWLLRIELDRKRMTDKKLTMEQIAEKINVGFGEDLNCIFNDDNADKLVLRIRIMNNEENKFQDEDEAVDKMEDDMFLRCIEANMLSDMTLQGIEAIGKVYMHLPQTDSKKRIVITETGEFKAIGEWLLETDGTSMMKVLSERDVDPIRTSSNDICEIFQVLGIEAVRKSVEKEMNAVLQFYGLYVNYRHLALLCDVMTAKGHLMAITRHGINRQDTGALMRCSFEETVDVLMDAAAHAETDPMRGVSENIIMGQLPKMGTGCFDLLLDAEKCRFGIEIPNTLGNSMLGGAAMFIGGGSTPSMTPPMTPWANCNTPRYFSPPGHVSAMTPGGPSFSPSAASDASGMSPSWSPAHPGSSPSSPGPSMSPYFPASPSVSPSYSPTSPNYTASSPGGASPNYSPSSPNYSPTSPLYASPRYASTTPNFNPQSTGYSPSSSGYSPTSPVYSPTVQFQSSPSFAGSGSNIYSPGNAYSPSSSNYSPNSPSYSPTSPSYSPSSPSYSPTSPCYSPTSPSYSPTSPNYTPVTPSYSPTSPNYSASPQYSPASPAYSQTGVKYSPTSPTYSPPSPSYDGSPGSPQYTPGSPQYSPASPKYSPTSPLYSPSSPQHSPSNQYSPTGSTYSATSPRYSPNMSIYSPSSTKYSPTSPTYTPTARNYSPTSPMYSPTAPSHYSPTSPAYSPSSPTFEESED

B1: Drosophila P-TEFb (protein)
chain 1: MAHMSHMLQQPSGSTPSNVGSSSSRTMSLMEKQKYIEDYDFPYCDESNKYEKVAKIGQGTFGEVFKAREKKGNKKFVAMKKVLMDNEKEGFPITALREIRILQLLKHENVVNLIEICRTKATATNGYRSTFYLVFDFCEHDLAGLLSNMNVKFSLGEIKKVMQQLLNGLYYIHSNKILHRDMKAANVLITKHGILKLADFGLARAFSIPKNESKNRYTNRVVTLWYRPPELLLGDRNYGPPVDMWGAGCIMAEMWTRSPIMQGNTEQQQLTFISQLCGSFTPDVWPGVEELELYKSIELPKNQKRRVKERLRPYVKDQTGCDLLDKLLTLDPKKRIDADTALNHDFFWTDPMPSDLSKMLSQHLQSMFEYLAQPRRSNQMRNYHQQLTTMNQKPQDNSMIDRVW
chain 2: MSLLATPMPQAATASSSSSASAAASASGIPITANNNLPFEKDKIWYFSNDQLANLPSRRCGIKGDDELQYRQMTAYLIQEMGQRLQVSQLCINTAIVYMHRFYAFHSFTHFHRNSMASASLFLAAKVEEQPRKLEHVIRAANKCLPPTTEQNYAELAQELVFNENVLLQTLGFDVAIDHPHTHVVRTCQLVKACKDLAQTSYFLASNSLHLTSMCLQYRPTVVACFCIYLACKWSRWEIPQSTEGKHWFYYVDKTVSLDLLKQLTDEFIAIYEKSPARLKSKLNSIKAIAQGASNRTANSKDKPKEDWKITEMMKGYHSNITTPPELLNGNDSRDRDRDRERERERERDPSSLLPPPAMVPQQRRQDGGHQRSSSVSGVPGSSSSSSSSSHKMPNYPGGMPPEAHPDHKSKQPGYNNRMPSSHQRSSSSGLGSSGSGSQHSSSSSSSSSQQPGRPSMPVDYHKSSRGMPPVGVGMPPHGSHKMTSGSKPQQPQQQPVPHPSASNSSASGMSSKDKSQSNKMYPNAPPPYSNSAPQNPLMSRGGYPGASNGSQPPPPAGYGGHRSKSGSTVHGMPHFEQQLPYSQSQSYGHMQQQPVPQSQQQQMPPEASQHSLQSKNSLFSPEWPDIKKEPMSQSQPQLFNGLLPPPAPPGHDYKLNSHPRDKESPKKERLTPTKKDKHRPVMPPMGSGNSSSGSGSSKPMLPPHKKQIPHGGDLLTNPGESGSLKRPNEISGSQYGLNKLDEIDNSNMPREKLRKLDTTTGLPTYPNYEEKHTPLNMSNGIETTPDLVRSLLKESLCPSNASLLKPDALTMPGLKPPAELLEPMPAPATIKKEQGITPMTSLASGPAPMDLEVPTKQAGEIKEESSSKSEKKKKKDKHKHKEKDKSKDKTEKEERKKHKRDKQKDRSGSGGSKDSSLPNEPLKMVIKNPNGSLQAGASAPIKLKISKNKVEPNNYSAAAGLPGAIGYGLPPTTATTTSASIGAAAPVLPPYGAGGGGYSSSGGSSSGGSSKKKHSDRDRDKESKKNKSQDYAKYNGAGGGIFNPLGGAGAAPNMSGGMGAPMSTAVPPSMLLAPTGAVPPSAAGLAPPPMPVYNKK
B1: the “CTD kinase assay (phosphate incorporation, mobility shift)” value is “incubation of P-TEFb with intact RNA polymerase II caused the incorporation of phosphate into the large subunit and a shift to the IIo form”; the “incorporation of label into the large subunit after chymotrypsin truncation of the CTD” value is on record as “the CTD-less polymerase (20 min digestion) was not detectably phosphorylated”.
